The values below are quoted from earlier work in publication PMC11658791.

Like-named read-outs stand apart in the source and are kept apart here.

Data set [1] concerns the target FpvAI (Pseudomonas aeruginosa) (UniProt P48632).
Data set [2] addresses Colicin M (Cma) (Escherichia coli) (UniProt P05820).
Data set [3] addresses TonB (Escherichia coli) (UniProt P02929).
The target is the same in data set [4]. The experiment in a line: ITC. A general note: ITC needs no label: the signal is the heat of the interaction.

Sequence of UniProt P02929 (P02929 whole entry): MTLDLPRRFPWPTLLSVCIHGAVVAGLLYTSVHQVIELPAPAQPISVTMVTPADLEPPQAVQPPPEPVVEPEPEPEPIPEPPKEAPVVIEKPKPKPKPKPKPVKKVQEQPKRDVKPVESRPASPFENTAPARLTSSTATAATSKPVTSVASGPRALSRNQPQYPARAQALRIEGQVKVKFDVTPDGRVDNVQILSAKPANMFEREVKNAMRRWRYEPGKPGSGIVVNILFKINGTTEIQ
Sequence of UniProt P48632 (P48632 44-815): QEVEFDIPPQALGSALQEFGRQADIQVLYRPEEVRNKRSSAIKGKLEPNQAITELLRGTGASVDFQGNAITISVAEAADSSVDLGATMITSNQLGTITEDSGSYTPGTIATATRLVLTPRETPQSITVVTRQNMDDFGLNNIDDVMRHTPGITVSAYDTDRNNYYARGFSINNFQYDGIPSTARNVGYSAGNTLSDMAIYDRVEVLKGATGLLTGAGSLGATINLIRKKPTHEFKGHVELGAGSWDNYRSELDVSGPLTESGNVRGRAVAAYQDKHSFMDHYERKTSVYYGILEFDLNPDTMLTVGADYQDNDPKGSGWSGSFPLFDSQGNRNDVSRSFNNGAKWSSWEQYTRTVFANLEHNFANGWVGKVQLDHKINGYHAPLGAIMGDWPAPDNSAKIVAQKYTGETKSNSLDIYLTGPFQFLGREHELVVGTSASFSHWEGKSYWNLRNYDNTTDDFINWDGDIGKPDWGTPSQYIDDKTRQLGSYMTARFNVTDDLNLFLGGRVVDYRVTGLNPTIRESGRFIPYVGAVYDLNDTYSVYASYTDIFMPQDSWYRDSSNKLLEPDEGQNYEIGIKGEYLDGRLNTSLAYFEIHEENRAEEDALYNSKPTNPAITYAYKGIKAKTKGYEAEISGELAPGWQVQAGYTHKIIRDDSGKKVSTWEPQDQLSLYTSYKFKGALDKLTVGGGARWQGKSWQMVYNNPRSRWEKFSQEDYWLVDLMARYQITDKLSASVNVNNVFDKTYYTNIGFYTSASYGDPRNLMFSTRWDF
Sequence of UniProt P05820 (P05820 whole entry): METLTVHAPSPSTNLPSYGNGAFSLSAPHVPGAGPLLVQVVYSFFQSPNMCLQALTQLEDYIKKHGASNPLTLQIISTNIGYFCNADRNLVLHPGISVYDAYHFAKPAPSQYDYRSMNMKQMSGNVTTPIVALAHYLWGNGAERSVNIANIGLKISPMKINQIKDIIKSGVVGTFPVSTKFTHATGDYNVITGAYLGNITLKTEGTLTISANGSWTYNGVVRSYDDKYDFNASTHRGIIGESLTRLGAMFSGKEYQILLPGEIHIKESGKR

A word on the Kd: it is the constant that tells how readily two partners part at equilibrium. For “Pyocin S2 (pyoS2NTD) N-terminal domain (from UniProt Q06584)”, in data set [1], the Kd is 0.24 nM.

Regarding FhuA (from UniProt P06971), the results for the Kd (in data set [2]; in the data set with TonB (Escherichia coli) [3]; in the data set with TonB (Escherichia coli) [4]) were 3.5 nM, 20 nM and 200 nM, respectively.
